Results: patent publication US20190309085A1

Target: CD16aV (human) (UniProt P08637)
Test: BLI (Octet), His-captured hCD16aV, 1:1 model

Sequence of CD16aV (human) (P08637 17-208 F176V limits assumed): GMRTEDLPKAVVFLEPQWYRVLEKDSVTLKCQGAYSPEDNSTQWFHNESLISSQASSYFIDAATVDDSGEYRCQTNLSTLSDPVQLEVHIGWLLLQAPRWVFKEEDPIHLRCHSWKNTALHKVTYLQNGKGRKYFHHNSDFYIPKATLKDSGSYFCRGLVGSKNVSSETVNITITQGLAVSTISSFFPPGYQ

Substance: Fc-WT (antibody)
- Kd: 580 nM
